Laboratory results published in patent publication US20120121706A1 (TUFTS MEDICAL CENTER, published 2012).

B1: proMMP-1 (platelet-associated zymogen of MMP-1) (enzyme, human, UniProt P03956 20-469, looked up)
chain: FPATLETQEQDVDLVQKYLEKYYNLKNDGRQVEKRRNSGPVVEKLKQMQEFFGLKVTGKPDAETLKVMKQPRCGVPDVAQFVLTEGNPRWEQTHLTYRIENYTPDLPRADVDHAIEKAFQLWSNVTPLTFTKVSEGQADIMISFVRGDHRDNSPFDGPGGNLAHAFQPGPGIGGDAHFDEDERWTNNFREYNLHRVAAHELGHSLGLSHSTDIGALMYPSYTFSGDVQLAQDDIDGIQAIYGRSQNPVQPIGPQTPKACDSKLTFDAITTIRGEVMFFKDRFYMRTNPFYPEVELNFISVFWPQLPNGLEAAYEFADRDEVRFFKGNKYWAVQGQNVLHGYPKDIYSSFGFPRTVKHIDAALSEENTGKTYFFVANKYWRYDEYKRSMDPGYPKMIAHDFPGIGHKVDAVFMKDGFFYFFHGTRQYKFDPKTKRILTLQKANSWFNCRKN
notes: Endogenous protein co-immunoprecipitated from platelet lysates; detected by Western with AB8105 or AB806; also called MMP-1 (predominantly in the pro form)
B2: GPVI of human platelets (receptor, UniProt Q9HCN6 21-339, looked up)
chain: QSGPLPKPSLQALPSSLVPLEKPVTLRCQGPPGVDLYRLEKLSSSRYQDQAVLFIPAMKRSLAGRYRCSYQNGSLWSLPSDQLELVATGVFAKPSLSAQPGPAVSSGGDVTLQCQTRYGFDQFALYKEGDPAPYKNPERWYRASFPIITVTAAHSGTYRCYSFSSRDPYLWSAPSDPLELVVTGTSVTPSRLPTEPPSPVAEFSEATAELTVSFTNEVFTTETSRSITASPKESDSPAGPARQYYTKGNLVRICLGAVILIILAGFLAEDWHSRRKRLRHRGRAVQRPLPPLPPLPLTRKSNGGQDGGRQDVHSRGLCS
notes: also called GPVI collagen receptor

Experiments:
[1] = biological target: PAR1 (protease-activated receptor-1) on human platelets (human) (UniProt P25116); experiment: cell-based or functional assay
PAR1 (protease-activated receptor-1) on human platelets (human), sequence (P25116 42-425): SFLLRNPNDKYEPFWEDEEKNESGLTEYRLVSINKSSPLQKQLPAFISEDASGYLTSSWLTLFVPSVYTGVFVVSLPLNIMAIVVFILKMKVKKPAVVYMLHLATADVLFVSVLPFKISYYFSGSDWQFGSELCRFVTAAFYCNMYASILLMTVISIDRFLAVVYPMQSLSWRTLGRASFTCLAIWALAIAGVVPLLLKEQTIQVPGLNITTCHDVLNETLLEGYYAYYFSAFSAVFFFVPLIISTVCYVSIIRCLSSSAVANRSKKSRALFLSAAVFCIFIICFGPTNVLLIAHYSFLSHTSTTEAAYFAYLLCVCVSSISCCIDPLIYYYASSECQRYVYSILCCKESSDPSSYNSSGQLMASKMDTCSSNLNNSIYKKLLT

[2] = biological target: PAR4 thrombin receptor on human platelets (human) (UniProt Q96RI0); experiment: cell-based or functional assay
PAR4 thrombin receptor on human platelets (human), sequence (Q96RI0 48-385): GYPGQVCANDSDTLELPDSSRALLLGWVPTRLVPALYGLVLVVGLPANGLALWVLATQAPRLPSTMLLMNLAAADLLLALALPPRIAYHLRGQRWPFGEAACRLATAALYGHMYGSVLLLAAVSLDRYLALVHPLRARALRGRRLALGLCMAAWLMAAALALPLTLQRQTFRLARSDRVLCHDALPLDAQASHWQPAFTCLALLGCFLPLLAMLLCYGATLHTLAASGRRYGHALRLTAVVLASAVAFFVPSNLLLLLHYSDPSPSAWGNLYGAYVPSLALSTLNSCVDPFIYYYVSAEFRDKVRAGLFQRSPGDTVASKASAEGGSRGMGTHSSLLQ

GPIbα of human platelets = GPIbα of human platelets (human, UniProt P07359 17-652); experiment: co-immunoprecipitation from resting human platelet lysates (anti-GPIBα MM2/174), Western for MMP-1
Method: (§1) One candidate binding site(s) for the platelet-associated proMMP-1 is the α₂β₁ collagen receptor. To determine if proMMP-1 associates with integrins in resting human platelets, lysates from gel-filtered platelets were incubated with 4-5 μg/ml anti-α₂ (Gi9 or AK7), β₁ (MAB1987), β₃ (MAB1957), GPVI (SC20149), GPIBα (MM2/174) or mouse IgG control for 2-4 h at 4° C. Protein G sepharose was added and incubated for an additional 1 h. Beads were collected and washed 4× in lysis buffer supplemented with 200 mM NaCl.

[3] = biological target: B1; experiment: co-immunoprecipitation from resting human platelet lysates (anti-GPVI SC20149), Western for MMP-1
Method: as §1

P1pal-12 (PAR1 pepducin lipopeptide)
decrease in growth rate and size of platelet aggregate strings on collagen under arterial flow, 3 µM [1]: 75%

P4pal-10 (PAR4 pepducin lipopeptide)
collagen-induced platelet aggregation, 3 µM pepducin [2]: 10%

B1
binding result (GPIbα of human platelets): no binding

B2
binding result [3]: no binding
